The series deals with T1, 6xHis-PEBP (recombinant mouse PEBP with a 6xHis-tag at the N-terminus).
T1 sequence: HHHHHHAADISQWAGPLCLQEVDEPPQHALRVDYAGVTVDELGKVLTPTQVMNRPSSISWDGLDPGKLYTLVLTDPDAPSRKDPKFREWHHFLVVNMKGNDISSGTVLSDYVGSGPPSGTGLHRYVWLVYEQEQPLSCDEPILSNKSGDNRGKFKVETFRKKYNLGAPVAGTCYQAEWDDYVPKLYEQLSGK
Sequence of tissue plasminogen activator (P00750 36-562): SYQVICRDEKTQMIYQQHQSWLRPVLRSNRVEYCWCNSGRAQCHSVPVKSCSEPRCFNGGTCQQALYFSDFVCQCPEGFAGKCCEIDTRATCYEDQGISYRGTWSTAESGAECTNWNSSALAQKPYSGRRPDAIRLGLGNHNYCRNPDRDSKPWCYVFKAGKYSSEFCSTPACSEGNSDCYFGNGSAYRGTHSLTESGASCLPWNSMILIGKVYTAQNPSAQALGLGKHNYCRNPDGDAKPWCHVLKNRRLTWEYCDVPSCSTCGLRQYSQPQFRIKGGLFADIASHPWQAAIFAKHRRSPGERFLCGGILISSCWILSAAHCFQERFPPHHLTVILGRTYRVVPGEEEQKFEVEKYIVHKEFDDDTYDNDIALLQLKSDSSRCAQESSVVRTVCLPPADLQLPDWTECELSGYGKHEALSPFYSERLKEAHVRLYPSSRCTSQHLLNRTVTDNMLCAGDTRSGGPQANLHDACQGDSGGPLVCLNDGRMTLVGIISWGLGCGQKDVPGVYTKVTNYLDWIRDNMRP
Sequence of pancreatic elastase (P00772 27-266): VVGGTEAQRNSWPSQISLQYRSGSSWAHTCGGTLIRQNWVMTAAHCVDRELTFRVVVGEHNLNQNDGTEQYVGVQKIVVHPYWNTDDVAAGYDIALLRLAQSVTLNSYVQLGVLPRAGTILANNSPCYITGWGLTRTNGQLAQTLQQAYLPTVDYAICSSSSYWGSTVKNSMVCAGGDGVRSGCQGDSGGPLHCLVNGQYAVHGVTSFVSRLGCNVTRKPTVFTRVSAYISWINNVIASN
Sequence of trypsin (P00760 24-246): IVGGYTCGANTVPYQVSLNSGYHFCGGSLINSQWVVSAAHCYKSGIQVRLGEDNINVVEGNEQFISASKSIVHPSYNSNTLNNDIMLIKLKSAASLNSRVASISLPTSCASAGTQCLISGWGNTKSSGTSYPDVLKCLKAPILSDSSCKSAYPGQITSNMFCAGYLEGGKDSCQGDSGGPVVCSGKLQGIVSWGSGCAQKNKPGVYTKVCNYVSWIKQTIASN
pancreatic elastase: the “amidolytic activity (chromogenic substrate, 405 nm)” value (“amidolytic activity” for short) was “The amidolytic activities of ... pancreatic elastase (4 pmol) were not affected”.
With tissue plasminogen activator, the “amidolytic activity” value is reported as “The amidolytic activities of ... tissue plasminogen activator (0.5 pmol) ... were not affected”.
Turning to trypsin, the “amidolytic activity” value is recorded as “The amidolytic activities of trypsin (0.005 pmol) ... were not affected”.

The values above are taken from US20060177432.
